Source: patent US20240352452, “CRISPR-BASED PROTEIN BARCODING AND SURFACE ASSEMBLY” (The Brigham and Women's Hospital, Inc., published 2024)
Substitutions are numbered along the chain they refer to.

How the values were obtained:
dCas9-myc [1] = target: T1, dCas9-myc (UniProt Q99ZW2 SEQ:1-1368); assay: dsDNA microarray, anti-myc; PAM NGG; settings: label: Cy3-dUTP
dCas9-myc [2] = target: T1, dCas9-myc; assay: no-PAM control; binding depended on PAM; settings: label: Cy3-dUTP
dCas9-6His [3] = target: T2, dCas9-6His (UniProt Q99ZW2 SEQ:1-1368); assay: dsDNA microarray, perfect match; PAM NGG; settings: tags: C-terminal 6His (pdCas9-bacteria, Addgene #44249 derived); label: Cy3-dUTP
dCas9-scFv B1-182.1 = dCas9-scFv B1-182.1 (UniProt Q99ZW2 SEQ:1-1368); assay: dsDNA microarray; detected via spike antigen and CR3022; PAM NGG; settings: tags: C-terminal anti-spike scFv B1-182.1 fusion and 6His (Addgene #186421); label: Cy3-dUTP
dCas9-6His [4] = target: T2, dCas9-6His; assay: dsDNA microarray, anti-6His; PAM NGG; 37 C 16 h, 50 mM Tris pH 7.4, 150 mM NaCl; settings: tags: C-terminal 6His (pdCas9-bacteria, Addgene #44249 derived); label: Cy3-dUTP
dCas9-HA [5] = target: T3, dCas9-HA (UniProt Q99ZW2 SEQ:1-1368); assay: dsDNA microarray, anti-HA; PAM NGG; settings: label: Cy3-dUTP
dCas9-HA [6] = target: T3, dCas9-HA; assay: no-PAM control; binding depended on PAM; settings: label: Cy3-dUTP
dCas9-6His [7] = target: T2, dCas9-6His; assay: off-target probe with PAM; dsDNA microarray; settings: tags: C-terminal 6His (pdCas9-bacteria, Addgene #44249 derived); label: Cy3-dUTP

B1: sgRNA spacer AUAAAAG ; probe for G2 (ssRNA ; dsDNA)
RNA: AUAAAAGAAACCCUCCGCAUGUUUUAGAGCUAGAAAUAGCAAGUUAAAAUAAGGCUAGUCCGUUAUCAACUUGAAAAAGUGGCACCGAGUCGGUGC
DNA 1: GAGCGACGCTGCACCAATGCGGAGGGTTTCTTTTATCCCGACCTCACCCG
DNA 2: CGGGTGAGGTCGGGATAAAAGAAACCCTCCGCATTGGTGCAGCGTCGCTC
B1: binds (dCas9-myc [1]).

B2: sgRNA spacer AUAAAAG ; probe for G2, no PAM (ssRNA ; dsDNA)
RNA: B1 RNA
DNA 1: B1 DNA 1 with C15G
DNA 2: B1 DNA 2 with G36C
B2: no binding (dCas9-myc [2]).

B3: sgRNA spacer AGAGACU ; probe for G3 (ssRNA ; dsDNA)
RNA: AGAGACUGCCCGACACAUCUGUUUUAGAGCUAGAAAUAGCAAGUUAAAAUAAGGCUAGUCCGUUAUCAACUUGAAAAAGUGGCACCGAGUCGGUGC
DNA 1: GAGCGACGCTGCACCAAGATGTGTCGGGCAGTCTCTCCCGACCTCACCCG
DNA 2: CGGGTGAGGTCGGGAGAGACTGCCCGACACATCTTGGTGCAGCGTCGCTC
B3: binds (dCas9-6His [3]).

B4: sgRNA spacer CACUGUU ; probe for G4 (ssRNA ; dsDNA)
RNA: CACUGUUUAACAAGCCCGUCGUUUUAGAGCUAGAAAUAGCAAGUUAAAAUAAGGCUAGUCCGUUAUCAACUUGAAAAAGUGGCACCGAGUCGGUGC
DNA 1: GAGCGACGCTGCACCAGACGGGCTTGTTAAACAGTGCCCGACCTCACCCG
DNA 2: CGGGTGAGGTCGGGCACTGTTTAACAAGCCCGTCTGGTGCAGCGTCGCTC
B4: binds (dCas9-6His [3]).

B5: sgRNA spacer UCCAUAG ; probe for G5 (ssRNA ; dsDNA)
RNA: UCCAUAGAUUUCUCCGUGAGGUUUUAGAGCUAGAAAUAGCAAGUUAAAAUAAGGCUAGUCCGUUAUCAACUUGAAAAAGUGGCACCGAGUCGGUGC
DNA 1: GAGCGACGCTGCACCACTCACGGAGAAATCTATGGACCCGACCTCACCCG
DNA 2: CGGGTGAGGTCGGGTCCATAGATTTCTCCGTGAGTGGTGCAGCGTCGCTC
B5: binds (dCas9-scFv B1-182.1); binds (dCas9-6His [3]).

B6: sgRNA spacer CCGUACC ; probe for G1 (ssRNA ; dsDNA)
RNA: CCGUACCUAGAUACACUCAAGUUUUAGAGCUAGAAAUAGCAAGUUAAAAUAAGGCUAGUCCGUUAUCAACUUGAAAAAGUGGCACCGAGUCGGUGC
DNA 1: GAGCGACGCTGCACCATTGAGTGTATCTAGGTACGGCCCGACCTCACCCG
DNA 2: CGGGTGAGGTCGGGCCGTACCTAGATACACTCAATGGTGCAGCGTCGCTC
B6: binds (dCas9-6His [4]); binds (dCas9-HA [5]).

B7: sgRNA spacer CCGUACC ; probe for G1, no PAM (ssRNA ; dsDNA)
RNA: B6 RNA
DNA 1: B6 DNA 1 with C15G
DNA 2: B6 DNA 2 with G36C
B7: no binding (dCas9-HA [6]).

B8: sgRNA spacer CCGUACC ; probe for G2 (ssRNA ; dsDNA)
RNA: B6 RNA
DNA 1: B1 DNA 1
DNA 2: B1 DNA 2
B8: no binding (dCas9-6His [7]).
